Results from publication PMC4036194, “Crystal Structure and Molecular Imaging of the Nav Channel β3 Subunit Indicates a Trimeric Assembly*” (The Journal of Biological Chemistry, 2014).

Assays:
[1] = target: the molecule itself; assay: crystal structure; deglycosylated β3 Ig domain; sitting drop, 1 M sodium citrate tribasic, 0.1 M CHES/sodium hydroxide pH 9.5, 19 °C; space group P3(1)21, three molecules in the asymmetric unit; 2.5 Å
[2] = target: T1, Human Nav 1.5 α subunit with a carboxyl-terminal hemagglutinin (HA) epitope tag (human, UniProt Q14524 1-2016); assay: atomic force microscopy (AFM) imaging; α subunit isolated through its HA tag from tsA 201 cells co-transfected with wild-type Myc-tagged β3; co-isolated sample on mica, imaged in air in tapping mode; details: both partners purified
T1 construct: Nav 1.5 sodium channel α subunit, human; ~250 kDa; Construct provided by Dr. C; source: tsA 201 cells, transfected (pcDNA3N); immunoisolated from detergent extract (anti-HA agarose, HA peptide elution); not shown: HA, C-terminal, kept
T1 sequence (Q14524 whole entry): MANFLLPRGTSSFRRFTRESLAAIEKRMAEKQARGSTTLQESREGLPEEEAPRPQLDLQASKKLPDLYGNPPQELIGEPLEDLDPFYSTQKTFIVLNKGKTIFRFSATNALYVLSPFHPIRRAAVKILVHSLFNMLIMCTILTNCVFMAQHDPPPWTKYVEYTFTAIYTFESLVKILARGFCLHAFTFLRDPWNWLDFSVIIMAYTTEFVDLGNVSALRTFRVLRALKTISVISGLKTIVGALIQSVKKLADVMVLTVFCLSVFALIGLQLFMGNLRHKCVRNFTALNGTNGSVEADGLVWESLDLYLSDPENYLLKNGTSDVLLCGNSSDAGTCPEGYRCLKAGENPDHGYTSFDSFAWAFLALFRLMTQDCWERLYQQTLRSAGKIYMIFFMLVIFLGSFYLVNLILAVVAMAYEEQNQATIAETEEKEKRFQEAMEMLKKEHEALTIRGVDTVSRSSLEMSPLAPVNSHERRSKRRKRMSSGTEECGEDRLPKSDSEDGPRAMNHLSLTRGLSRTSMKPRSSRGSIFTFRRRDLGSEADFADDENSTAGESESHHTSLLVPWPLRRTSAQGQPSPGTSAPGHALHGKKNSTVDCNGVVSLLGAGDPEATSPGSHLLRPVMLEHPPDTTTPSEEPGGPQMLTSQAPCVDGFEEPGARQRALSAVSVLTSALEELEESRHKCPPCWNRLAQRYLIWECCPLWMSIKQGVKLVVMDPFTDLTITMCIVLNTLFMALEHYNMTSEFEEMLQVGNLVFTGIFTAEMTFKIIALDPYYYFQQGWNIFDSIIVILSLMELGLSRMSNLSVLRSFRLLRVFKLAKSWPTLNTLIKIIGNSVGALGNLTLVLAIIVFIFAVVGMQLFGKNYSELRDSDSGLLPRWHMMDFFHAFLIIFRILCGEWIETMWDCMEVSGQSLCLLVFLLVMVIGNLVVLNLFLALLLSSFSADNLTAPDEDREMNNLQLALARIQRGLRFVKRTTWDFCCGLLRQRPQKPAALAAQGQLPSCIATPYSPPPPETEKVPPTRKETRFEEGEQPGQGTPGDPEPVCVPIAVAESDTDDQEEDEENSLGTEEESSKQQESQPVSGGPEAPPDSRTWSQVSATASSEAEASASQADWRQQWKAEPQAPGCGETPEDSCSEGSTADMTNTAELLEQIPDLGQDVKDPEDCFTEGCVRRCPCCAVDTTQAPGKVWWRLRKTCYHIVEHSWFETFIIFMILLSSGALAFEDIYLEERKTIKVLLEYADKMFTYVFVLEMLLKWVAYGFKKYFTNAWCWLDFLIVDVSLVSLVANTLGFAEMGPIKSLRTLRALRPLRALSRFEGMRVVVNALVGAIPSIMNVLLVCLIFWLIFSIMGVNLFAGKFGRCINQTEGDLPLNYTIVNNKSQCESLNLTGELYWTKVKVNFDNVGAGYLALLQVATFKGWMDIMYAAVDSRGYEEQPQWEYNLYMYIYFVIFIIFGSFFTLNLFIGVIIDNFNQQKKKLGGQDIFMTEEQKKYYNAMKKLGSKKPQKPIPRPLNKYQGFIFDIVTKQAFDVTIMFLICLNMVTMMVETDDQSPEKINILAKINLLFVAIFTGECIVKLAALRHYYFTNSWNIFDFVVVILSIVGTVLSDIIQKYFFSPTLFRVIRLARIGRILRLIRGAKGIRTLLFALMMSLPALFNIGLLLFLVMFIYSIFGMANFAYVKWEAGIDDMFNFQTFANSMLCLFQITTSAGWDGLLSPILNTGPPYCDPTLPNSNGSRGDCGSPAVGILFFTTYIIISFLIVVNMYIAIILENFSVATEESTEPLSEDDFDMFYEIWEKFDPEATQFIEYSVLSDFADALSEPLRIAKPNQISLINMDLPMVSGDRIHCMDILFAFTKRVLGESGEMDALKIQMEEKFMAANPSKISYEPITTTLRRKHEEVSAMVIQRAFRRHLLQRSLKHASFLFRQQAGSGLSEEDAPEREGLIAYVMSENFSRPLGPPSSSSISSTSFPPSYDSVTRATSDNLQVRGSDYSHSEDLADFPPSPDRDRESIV

[3] = target: the molecule itself; assay: fluorescence photoactivated localization microscopy (FPALM) with pair correlation analysis; mEos2 fusions on the plasma membrane of fixed, transfected HEK293 cells; TIRF-PALM; 30 regions of 1 μm^2 on five cells; proteins per cluster

B1: Nav channel β3 subunit Ig domain with carboxyl-terminal hexa-His tag (domain or fragment, human)
chain: VCVEVPSETEAVQGNPMKLRCISCMKREEVEATTVVEWFYRPEGGKDFLIYEYRNGHQEVESPFQGRLQWNGSKDLQDVSITVLNVTLNDSGLYTCNVSREFEFEAHRPFVKTTRLIPLRV
modifications: disulfide bonds Cys-2–24 and Cys-21–96
notes: Nav channel β3 subunit (SCN3B), human, extracellular Ig domain; the cDNA also encodes the amino-terminal ER targeting signal, which was efficiently removed on secretion; 127 amino acids in total, theoretical mass 14.8 kDa; numbers count on: the mature protein; Deglycosylated with peptide:N-glycosidase F for crystallisation; chemically cross-linked for AUC; Surmise: the 127 residues are the mature …
B1 was tested, and the “stoichiometry N” value [1] was 3.

B2: Full-length human β3 subunit with a carboxyl-terminal Myc epitope tag (natural protein, UniProt Q9NY72 23-215, looked up)
chain: FPVCVEVPSETEAVQGNPMKLRCISCMKREEVEATTVVEWFYRPEGGKDFLIYEYRNGHQEVESPFQGRLQWNGSKDLQDVSITVLNVTLNDSGLYTCNVSREFEFEAHRPFVKTTRLIPLRVTEEAGEDFTSVVSEIMMYILLVFLTLWLLIEMIYCYRKVSKAEEAAQENASDYLAIPSENKENSAVPVEE
notes: Nav channel β3 subunit (SCN3B), human, full length; runs at ~40 kDa (glycosylated) and ~30 kDa (likely unglycosylated); numbers count on: the mature protein; also called Myc-tagged β3 subunit; wild-type β3; source: tsA 201 cells, transfected (pFastBacMam); immunoisolated from detergent extract (anti-Myc agarose, Myc peptide elution); in detergent extract of co-transfected cells for co-isolation …
With B2 the “stoichiometry N” value [2] was 4.

B3: Full-length β3 subunit tagged at the carboxyl terminus with mEos2 (natural protein, UniProt Q9NY72 23-215, looked up)
chain: B2 chain
notes: Nav channel β3 subunit (SCN3B), full length; also called β3-mEos2; β3-mEOS2; source: HEK293 cells, transiently transfected, on the plasma membrane of fixed cells; not shown: mEos2, C-terminal, kept
With B3 the “stoichiometry N” value [3] was 3.
